The text below walks through data of patent US6844318B2, “Peptidase-cleavable, targeted antineoplastic drugs and their therapeutic use” (priority 2000, dated 2005).

Like-named read-outs stand apart in the source and are kept apart here. Residues, ends and D or L forms follow the SMILES beside them. *: point of attachment. Doxorubicin(3'-N) = COc1cccc2c1C(=O)c1c(O)c3c(c(O)c1C2=O)C[C@@](O)(C(=O)CO)C[C@@H]3O[C@H]1C[C@H](N*)[C@H](O)[C@H](C)O1 Some results are limits rather than exact numbers.

The conditions of data set [1]: mice; cited from earlier work.
In data set [2] the test system is human ovarian tumor xenograft. The conditions noted are these: equitoxic doses; cited from earlier work.
The conditions of data set [3]: Phase I trial, in the tumor tissue; cited from earlier work.
A short description of data set [4]: Stability of conjugates in nude mouse blood. The class given is in vitro ADME. The following applies: fresh heparinized whole nude mouse blood, 37° C., read-out: Conjugate Stability in Blood After 5.5 Hours (Percent of Control (In Buffer, T = 0)), Nude Mouse Blood. The procedure:
(§1) The stability of doxorubicin conjugated peptides in human or nude mouse blood was evaluated by reverse phase HPLC with fluorescence detection after an 80% acetonitrile extraction. Individual peptides are prepared as 60 μmolar solutions in Hepes buffer pH 7.5 (50 mM), with CaCl2 (10 mM), Brij-35 (0.1%), followed by dilution to 10 μmolar in fresh heparinized whole blood or buffer. Solutions are incubated (37° C.) with slow continuous rocking. 50 μl reactions are terminated at designated times ranging from 1 minute to 24 hours by vortexing into 200 μl acetonitrile. After a brief centrifugation (1 min, 14,000×g) to pellet the precipitate, the acetonitrile is collected and evaporated to dry under a flow of nitrogen. Extracted samples are resuspended in 50 μl acetonitrile, followed by 100 μl distilled H2O, and transferred to HPLC autoinjector vials. Samples are chromatographed using a Nova-Pak C18 column (3.9×150 mm; WAT086344, Waters Corp. Milford, Ma), with a 12 minute linear gradient from 33.3 to 77.7% acetonitrile, 0.1% TFA, using a flow rate of 1 ml/min. A scanning fluorescence detector (# 474, Waters Corp) monitoring 480 nm excitation, 580 nm emission quantitates AUC of peaks of interest; mass is extrapolated from a standard curve generated under matching conditions.

Data set [5] in a line: Stability of conjugates in human blood. The class given is in vitro ADME. The conditions noted are these: fresh heparinized whole human blood, 37° C., read-out: Conjugate Stability in Blood After 5.5 Hours (Percent of Control (In Buffer, T = 0)), Human Blood. As to the method:
as §1

The nature of data set [6]: Stability of conjugates in Hepes buffer (control of blood stability test). The data set is classed as physicochemical. The conditions noted are these: Hepes buffer pH 7.5, 10 μmolar, 37° C. As to the method:
as §1

Data set [7] has as its system HT1080 cells. The data set can be described thus: cells. The data set is classed as cell-based. As to the method:
The conjugates were tested for cytotoxic effect against the HT1080 cell line, which expresses multiple MMPs. […] HT 1080 cells in culture have significant levels of MMPs 2, 9, and 14 and are consequently especially suitable for the evaluation of conjugates that are substrates for that enzyme.
The cell line was grown in tissue MEM with Earl's salts containing 10% fetal bovine serum (FBS). On day one, 500 cells were seeded into 96 well plates in 200 ul of cell culture medium that containing 10% FBS which had been stripped of bovine gelatinases by prior passage over a gelatin-sepharose column. On day two, peptidyl-Doxorubicin conjugates and Doxorubicin as a control were added to the plates. The cells were incubated for three days at 37° C., 5% CO2 in a tissue culture cell incubator. MTS reagent was added to each microplate well using the manufacturer's instructions […]. The plates were incubated for 2 hours at 37° C., 5% CO2. The plates were read on a Molecular Devices Spectropmax 250 plate reader at […]. The viability of the cells in each well was then calculated for each concentration of compound tested and compared to the control wells where no compound was added.

The test system of data set [8] is HT1080 cells. The experiment in a line: Analysis of processing by HT1080 cultures (HPLC). The class given is cell-based. The procedure:
Actively growing HT1080 cells are seeded in a 12 well plate at 2×10^5 cells per well in DMEM with 10% serum. On the next day, media is removed and cells are washed twice with PBS. 1.5 of DMEM containing 0.1% BSA, […] Ac-PLG-HofK(Me2)L-Dox (SEQ ID NO: 127) and 40 nM PMA is then added to each well. A broad spectrum MMP inhibitor is added to some samples so that the amount of processing that is due to MMPs can be determined. At the indicated times, 0.1 ml aliquots are removed, added to 0.4 ml acetonitrile, vortexed, and centrifuged for 2 minutes. 0.4 of cleared supernatant is removed and dried using a nitrogen stream. The dried pellet is suspended in 0.12 ml of HPLC Buffer A and analyzed as in Example 1000.
At the times used in this experiment, the only detectable metabolite is L-Dox. HofK(Me2)L-Dox and K(Me2)L-Dox are not detected since they are rapidly converted to L-Dox. At later times, Dox is formed from L-Dox.

A further data set relates to prostate tumor cells. The following applies: cited from earlier work.
Another data set deals with PSA protease (Homo sapiens, UniProt P07288). The conditions noted are these: cited from earlier work.
The conditions of data set [9]: cited from earlier work.
[10] abbreviates: HT1080 cells, three days, MTS, read-out: EC50.

Chain of PSA protease (P07288 25-261): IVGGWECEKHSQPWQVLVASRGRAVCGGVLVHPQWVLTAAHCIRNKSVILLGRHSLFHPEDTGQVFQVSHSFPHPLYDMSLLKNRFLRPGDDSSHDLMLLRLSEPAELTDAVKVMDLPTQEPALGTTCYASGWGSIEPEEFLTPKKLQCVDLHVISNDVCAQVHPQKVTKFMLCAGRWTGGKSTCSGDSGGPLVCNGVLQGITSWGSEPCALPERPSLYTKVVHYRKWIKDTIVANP

In the case of Leu-Dox, in [1], the “overall conversion of Leu-Dox to Dox” value is on record as “approximately 20%”. Also, the “anti-tumor efficacy compared with free doxorubicin” value in data set [2] was “more effective anti-tumor agent than free doxorubicin”. In addition, the “conversion of Leu-Dox to Dox” value in data set [3] is “approximately 25%”.

For the compound `COc1cccc2c1C(=O)c1c(O)c3c(c(O)c1C2=O)C[C@@](O)(C(=O)CO)C[C@@H]3O[C@H]1C[C@H](NC(=O)[C@H](CC(C)C)NC(=O)[C@H](C)NC(=O)[C@H](CC(C)C)NC(=O)CNC(=O)[C@H](CC(C)C)NC(=O)[C@@H]2CCCN2C(=O)CNC(C)=O)[C@H](O)[C@H](C)O1` [Ac-GPLG-LAL-Dox, acetyl-G-P-L-G-L-A-L-Dox] (Ac-GPLGLAL-{Doxorubicin(3'-N)}), the values for the remaining at 5.5 h, 10 μmolar in [4] and in [5] were 5.8% and 15.4%, respectively. Also, the “Conjugate Stability After 5.5 Hours (Percent of Control (In Buffer, T = 0)), Buffer” value in data set [6] stood at 92.2%.

What is called EC50 is the concentration at which the effect is half-maximal. With `COc1cccc2c1C(=O)c1c(O)c3c(c(O)c1C2=O)C[C@@](O)(C(=O)CO)C[C@@H]3O[C@H]1C[C@H](NC(=O)[C@H](CC(C)C)NC(=O)[C@H](C)NC(=O)[C@H](Cc2ccc(O)cc2)NC(=O)[C@H](CC(C)C)NC(=O)CNC(=O)[C@H](CC(C)C)NC(=O)[C@@H]2CCCN2C(C)=O)[C@H](O)[C@H](C)O1` [Ac-PLG-LYAL-Dox, acetyl -P-L-G-L-Y-A-L-Dox] (Ac-PLGLYAL-{Doxorubicin(3'-N)}), the remaining at 5.5 h, 10 μmolar is 20% in data set [4] and 37.5% in [5]. In addition, the EC50 in the data set with HT1080 cells [7] (setting [10]) is less than 10 µM. The “Conjugate Stability After 5.5 Hours (Percent of Control (In Buffer, T = 0)), Buffer” value in data set [6] came to 91.3%.

`COc1cccc2c1C(=O)c1c(O)c3c(c(O)c1C2=O)C[C@@](O)(C(=O)CO)C[C@@H]3O[C@H]1C[C@H](NC(=O)[C@H](CC(C)C)NC(=O)CNC(=O)[C@H](CC(C)C)NC(=O)[C@@H]2CCCN2C(=O)CNC(C)=O)[C@H](O)[C@H](C)O1` [Ac-GPLG-L-Dox] (Ac-GPLGL-{Doxorubicin(3'-N)}): the remaining at 5.5 h, 10 μmolar in data set [4] was 5.9%; in data set [5], 10.2%. For the same compound, the “Conjugate Stability After 5.5 Hours (Percent of Control (In Buffer, T = 0)), Buffer” value in data set [6] amounted to 106%.

As for “acetyl-P-L-G-Hof-(N,N-dimethyl-K)-L-Dox (XLGXXL; non-natural residues) [Ac-PLG-HofK(Me2)L-Dox]”, the “Fraction of L-Dox” value came to 0 with HT1080 cells [8] (0 hours, Minus MMP inhibitor); 0 in the data set with HT1080 cells [8] (0 hours, Plus MMP inhibitor); 0.10 in the data set on HT1080 cells [8] (3 hours, Minus MMP inhibitor); 0.004 in the data set on HT1080 cells [8] (3 hours, Plus MMP inhibitor); 0.20 in the data set with HT1080 cells [8] (5.5 hours, Minus MMP inhibitor); 0.01 in the data set with HT1080 cells [8] (5.5 hours, Plus MMP inhibitor). Moreover, the “Fraction of L-Dox” value came to 0.46 in the data set on HT1080 cells [8] (8 hours, Minus MMP inhibitor) and 0.02 with HT1080 cells [8] (8 hours, Plus MMP inhibitor).

`COc1cccc2c1C(=O)c1c(O)c3c(c(O)c1C2=O)C[C@@](O)(C(=O)CO)C[C@@H]3O[C@H]1C[C@H](NC(=O)[C@H](CC(C)C)NC(=O)[C@H](Cc2ccc(O)cc2)NC(=O)[C@H](CC(C)C)NC(=O)CNC(=O)[C@H](CC(C)C)NC(=O)[C@@H]2CCCN2C(C)=O)[C@H](O)[C@H](C)O1` [Ac-PLG-LYL-Dox, acetyl-P-L-G-L-Y-L-Dox] (Ac-PLGLYL-{Doxorubicin(3'-N)}): the remaining at 5.5 h, 10 μmolar in data set [5] is 90.1%. Further, the “Conjugate Stability After 5.5 Hours (Percent of Control (In Buffer, T = 0)), Buffer” value in [6] came out at 112%.

Consider `COc1cccc2c1C(=O)c1c(O)c3c(c(O)c1C2=O)C[C@@](O)(C(=O)CO)C[C@@H]3O[C@H]1C[C@H](NC(=O)[C@H](CC(C)C)NC(=O)[C@H](CC(C)C)NC(=O)CNC(=O)[C@H](CC(C)C)NC(=O)[C@@H]2CCCN2C(C)=O)[C@H](O)[C@H](C)O1` [Ac-PLG-LL-Dox, Acetyl-P-L-G-L-L-Dox] (Ac-PLGLL-{Doxorubicin(3'-N)}), for which the remaining at 5.5 h, 10 μmolar in data set [4] is 63.8%; in [5], 87.2%. For the same compound, the EC50 in the data set on HT1080 cells [7] (setting [10]) was less than 10 µM. The “Conjugate Stability After 5.5 Hours (Percent of Control (In Buffer, T = 0)), Buffer” value in [6] is on record as 106%.

Regarding `COc1cccc2c1C(=O)c1c(O)c3c(c(O)c1C2=O)C[C@@](O)(C(=O)CO)C[C@@H]3O[C@H]1C[C@H](NC(=O)[C@H](CC(C)C)NC(=O)[C@H](CC(C)C)NC(=O)CNC(=O)[C@H](CC(C)C)NC(=O)[C@@H]2CCCN2C(=O)CNC(C)=O)[C@H](O)[C@H](C)O1` [Ac-GPLG-LL-Dox, acetyl-G-P-L-G-L-L-Dox] (Ac-GPLGLL-{Doxorubicin(3'-N)}), the remaining at 5.5 h, 10 μmolar in data set [4] came to 25.8%; in [5] it was 42.6%. Further, the “Conjugate Stability After 5.5 Hours (Percent of Control (In Buffer, T = 0)), Buffer” value in data set [6] is 105%.

On to “Ac-HSSKLQ-Leu-Dox: peptide-doxorubicin pro-drug targeted to the prostate-specific antigen (XSSKLQL; N-acetyl, Leu-doxorubicin conjugate)”, for which the “activity against prostate tumor cells which express the protease activity” value in the data set with prostate tumor cells was “is active against prostate tumor cells”. The “substrate for the PSA protease” value in the data set with PSA protease was “is a substrate for the PSA protease”.

For `COc1cccc2c1C(=O)c1c(O)c3c(c(O)c1C2=O)C[C@@](O)(C(=O)CO)C[C@@H]3O[C@H]1C[C@H](NC(=O)[C@H](CC(C)C)NC(=O)[C@H](C)NC(=O)[C@H](CC(C)C)NC(=O)CNC(=O)[C@H](CC(C)C)NC(=O)[C@@H]2CCCN2C(C)=O)[C@H](O)[C@H](C)O1` [Ac-PLG-LAL-Dox, acetyl-P-L-G-L-A-L-Dox] (Ac-PLGLAL-{Doxorubicin(3'-N)}), the remaining at 5.5 h, 10 μmolar in data set [4] amounted to 9%; in [5], 49.1%. In the data set with HT1080 cells [7] (setting [10]), the EC50 is less than 10 µM. Also, the “Conjugate Stability After 5.5 Hours (Percent of Control (In Buffer, T = 0)), Buffer” value in data set [6] was 96.8%.

As for `COc1cccc2c1C(=O)c1c(O)c3c(c(O)c1C2=O)C[C@@](O)(C(=O)CO)C[C@@H]3O[C@H]1C[C@H](NC(=O)[C@H](CC(C)C)NC(=O)[C@H](C)NC(=O)[C@H](CC(C)C)NC(=O)[C@H](CC(C)C)NC(=O)CNC(=O)[C@H](CC(C)C)NC(=O)[C@@H]2CCCN2C(C)=O)[C@H](O)[C@H](C)O1` [Ac-PLG-LLAL-Dox, acetyl -P-L-G-L-L-A-L-Dox] (Ac-PLGLLAL-{Doxorubicin(3'-N)}), the remaining at 5.5 h, 10 μmolar in data set [4] is 19.2%; in [5], 55.6%. The same compound registered an EC50 in the data set on HT1080 cells [7] of less than 10 µM. Besides, the “Conjugate Stability After 5.5 Hours (Percent of Control (In Buffer, T = 0)), Buffer” value in [6] is 102.0%.

Take `COc1cccc2c1C(=O)c1c(O)c3c(c(O)c1C2=O)C[C@@](O)(C(=O)CO)C[C@@H]3O[C@H]1C[C@H](NC(=O)[C@H](CC(C)C)NC(=O)CNC(=O)[C@H](CC(C)C)NC(=O)[C@@H]2CCCN2C(C)=O)[C@H](O)[C@H](C)O1` [Ac-PLG-L-Dox, Ac-PLGL-Dox] (Ac-PLGL-{Doxorubicin(3'-N)}): the results for the remaining at 5.5 h, 10 μmolar in [4] and in [5] were 68.2% and 74.7%, respectively. Also, the “Conjugate Stability After 5.5 Hours (Percent of Control (In Buffer, T = 0)), Buffer” value in [6] was 99.2%.

Consider `COc1cccc2c1C(=O)c1c(O)c3c(c(O)c1C2=O)C[C@@](O)(C(=O)CO)C[C@@H]3O[C@H]1C[C@H](N)[C@H](O)[C@H](C)O1` [Doxorubicin, doxorubicin, reference compound], for which, in [9], the “cumulative dose in excess of which there is a substantial risk of cardiotoxicity and myelosuppression” value is 500 to 550 mg doxorubicin/m^2. The EC50 with HT1080 cells [7] (Homo sapiens, HT-1080, 72 h, HT1080 cells, three days, MTS, read-out: EC50) fell in the range of 0.008 to 0.009 µM.
